According to PMC3314626 (2012):
Where a chain is given by its changes, count along the chain named. Blank lines part the entries; values can stand above or below the binder they belong to.

Target: T1, ALC1 peptide (Homo sapiens, UniProt O94985)
T1 chain: KENEMDWDDSALTI
Test: ITC

- Kd: 44 µM
B1: KLC1 TPR (protein)
chain: GGYEIPARLRTLHNLVIQYASQGRYEVAVPLCKQALEDLEKTSGHDHPDVATMLNILALVYRDQNKYKDAANLLNDALAIREKTLGKDHPAVAATLNNLAVLYGKRGKYKEAEPLCKRALEIREKVLGKDHPDVAKQLSNLALLCQNQGKYEEVEYYYQRALEIYQTKLGPDDPNVAKTKNNLASCYLKQGKFKQAETLYKEILTRAHEREFGSVDDENKPIWMHAEEREECKGKQKDGTSFGEYGGWYKACKVDSPTVTTTLKNLGALYRRQGKFEAAETLEEAAMRSRKQG

- Kd: 50 µM
B2: KLC1 TPR (protein)
chain: B1 chain with S139N
